# From PMC10350915, “Development of a New Class of CXCR4-Targeting Radioligands Based on the Endogenous Antagonist EPI-X4 for Oncological Applications” (Journal of Medicinal Chemistry, 2023)
# Square brackets hold non-standard residues; d marks the D form. Peptide text beside a SMILES is read from it. * marks the point of attachment. DOTA = O=C(O)CN1CCN(CC(=O)O)CCN(CC(=O)*)CCN(CC(=O)O)CC1; Palmitoyl = CCCCCCCCCCCCCCCC(=O)*
# Assays:
# Jurkat xenografts [1] = assay type: in vivo, mouse; settings: 1 h p.i., SPECT/CT or PET/CT
# Method: The ability of the ^177Lu ligands to target CXCR4 in vivo was assessed by SPECT/CT imaging in Jurkat xenografts. […] 1 h after injection, the remaining amount of radioligand in the body (and vice versa, the washout) was quantified by measuring the total body activity (mouse) in a dose calibrator. The % of the radioligand remaining in the body after 1 h is reported in Figure 6A as % of the remaining activity in reference to the injected activity (100%).
# Figure 6 SPECT/CT images as maximum intensity projections (MIPs) of Jurkat tumor-bearing mice at 1 h p.i. of ^177Lu-labeled ligands (200 pmol, ∼15 MBq). […] (B) Same SPECT/CT images of ^177Lu-1, ^177Lu-2, ^177Lu-5, and ^177Lu-6, adapted in a lower scale. T: tumor, L: liver, and K: kidneys. […] TEXT PRINTED IN THE PICTURE: (A) ^177Lu-1: Remaining Activity (% injected): 6 % | (A) ^177Lu-2: Remaining Activity (% injected): 7 % | (A) ^177Lu-5: Remaining Activity (% injected): 7 % | (A) ^177Lu-6: Remaining Activity (% injected): 8 % | (A) ^177Lu-7: Remaining Activity (% injected): 55 % | (A) ^177Lu-9: Remaining Activity (% injected): 94 %
# (§1) The experimental protocol involving animals was approved by the Veterinary Office (Department of Health) of the Cantonal Basel-Stadt (Approval No. 30515) in accordance with the Swiss regulations for animal treatment. Female athymic nude-Foxn1^nu/Foxn1^+ mice (Envigo, The Netherlands), 4–6 weeks old, were injected subcutaneously with 10^7 Jurkat cells in a 200 μL (1:1) mixture of PBS and Matrigel (CorningMatrigelMembrane matrix, Fischer Scientific, Germany) on the right shoulder. The tumors were allowed to grow for 3–4 weeks before commencement of the experiments.
# Nude mice bearing Jurkat xenografts were intravenously injected via the tail vein with ∼15 MBq (200 pmol) of the ^177Lu ligands and 8 MBq (200 pmol) of ^68Ga-7 were euthanized 1 h post injection (p.i.). The radioactivity in the syringe before and after injection was measured followed by measuring the amount of radioactivity remaining in the sacrificed mice. […]
# Jurkat xenografts [2] = test: in vivo; settings: female, athymic nude-Foxn1^nu/Foxn1^+, mouse, iv, 200 pmol, 1 h
# Method: Quantification of the total body distribution of ^177Lu-7 and ^68Ga-7 was performed in Jurkat xenografted mice after intravenous injection of 100 μL, 200 pmol, with […], respectively (n = 5). The mice were sacrificed at 1 h p.i. ^177Lu-7 and ^68Ga-7 accumulated mainly in the kidneys (83.1 ± 25.5 and 75.6 ± 30.3%IA/g, respectively, p = 0.59), liver (5.19 ± 1.08 and 4.08 ± 1.05%IA/g, respectively, p = 0.07) and tumor (2.25 ± 0.43 and 2.24 ± 0.57%IA/g, respectively, p = 0.97), as already seen in the SPECT/CT and PET/CT images (Figures 6 and 7). Uptake in the tumor was lower than for the kidneys and liver but higher as in all other tissues investigated. […] The uptake seen in the liver might be attributed, at least partially, to the fact that CXCR4 is constitutively expressed in the sinusoidal endothelial cells of the murine liver[38] or could be related to another yet-unknown mechanism previously reported for other CXCR4-targeting probes.[11],[39] Regretfully, there are no direct measurements available for the affinity of ^177Lu-7 with the murine CXCR4 (mCXCR4). This is relevant for assessing its total body distribution. However, we have shown that EPI-X4 and EPI-X4 derivatives are active in mouse models of inflammatory diseases[22],[25] and cancer.[40] More specifically, EPI-X4 derivatives such as JM#21 reduced immune cell influx in lungs of mice suffering from allergic asthma or reduced skin inflammation in a murine model of atopic dermatitis upon topical administration. […] Thus, we speculate that the DOTA conjugate of JM#173 (ligand-7) also cross-reacts to the mCXCR4. […] Last, but not the least, the uptake in the kidneys was predominant, and given the highly hydrophilic character of ^177Lu-7, is attributed, at least partially, to its excretion via this path.
# as §1
# Quantitative biodistribution studies of ^177Lu-7 (100 μL, 200 pmol, 0.8–1 MBq) and ^68Ga-7 (100 μL, 200 pmol, 2–3 MBq) were performed after intravenous injection of the radioligand via the tail vein on Jurkat xenografts. […] 1 h after injection of the radioligand, mice were sacrificed, organs of interest and blood were collected, rinsed of excess blood, blotted dry, weighed, and counted in a γ-counter. The samples were counted against a suitable diluted aliquot of the injected solution as the standard and the results are expressed as percentage injected activity per gram of tissue (%IA/g). Statistical analysis between selected organs was performed by Welch’s t-test and p values <0.05 were considered statistically significant.
# CXCR4 [3] = biological target: T1, CXCR4 (Homo sapiens, UniProt P61073); test: Antibody-competition assay (anti-CXCR4 clone 12G5) on Ghost-CXCR4 cells; assay type: binding; settings: competition with CXCR4 antibody clone 12G5, Ghost-CXCR4 cells, 4 °C, 2 h; mean ± SEM
# T1 construct: Jurkat cells, which are naturally expressing high levels of CXCR4; host or cells: Jurkat, clone E6-1
# Method: (§2) Binding of the DOTA-conjugated EPI-X4 derivatives to CXCR4 was assessed by an antibody-competition assay[26] using Ghost cells stably transfected with CXCR4, as well as on Jurkat cells, which are naturally expressing high levels of CXCR4. […] The buffer was removed and plates were precooled at 4 °C. Ligands were serially diluted in PBS. The antibody (clone 12G5, Allophycocyanin labeled, BD Pharmingen #555976) was diluted in PBS containing 1% FBS. The antibody was used at a fixed concentration close to its KD. 15 μL of compound and immediately afterward 15 μL of the antibody were added to the cells. Plates were incubated at 4 °C in the dark for 2 h allowing to establish an equilibrium binding. Cells were then washed twice with PBS containing 1% FBS and fixed with 2% paraformaldehyde. Antibody binding was analyzed by flow cytometry (FACS CytoFLEX; Beckman Coulter).
# CXCR4 [4] = biological target: T1, CXCR4; test: Antibody-competition assay (anti-CXCR4 clone 12G5) on Jurkat cells; assay type: binding; settings: competition with CXCR4 antibody clone 12G5, Jurkat cells, 4 °C, 2 h; mean ± SEM
# Method: as §2
# T1 sequence (P61073 whole entry): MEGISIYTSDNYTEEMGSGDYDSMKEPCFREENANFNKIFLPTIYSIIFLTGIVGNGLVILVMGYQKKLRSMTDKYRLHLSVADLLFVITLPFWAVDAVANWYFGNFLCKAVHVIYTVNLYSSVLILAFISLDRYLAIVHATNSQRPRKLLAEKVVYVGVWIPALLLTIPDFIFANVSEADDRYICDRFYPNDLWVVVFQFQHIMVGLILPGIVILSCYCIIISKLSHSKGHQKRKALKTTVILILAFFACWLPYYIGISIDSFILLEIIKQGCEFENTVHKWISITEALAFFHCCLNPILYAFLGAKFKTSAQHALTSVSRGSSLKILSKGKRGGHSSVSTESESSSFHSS
smiles,measurement,setting,value
"CC[C@@H](C)[C@@H](N)C(=O)N[C@@H](CC(C)C)C(=O)N[C@@H](CCCNC(=N)N)C(=O)N[C@@H](Cc1c[nH]c2ccccc12)C(=O)N[C@@H](CO)C(=O)N[C@@H](CCCNC(=N)N)C(=O)N[C@@H](CCCCN)C(=O)N[C@@H](CCCCNC(=O)CN1CCN(CC(=O)O)CCN(CC(=O)O)CCN(CC(=O)O)CC1)C(N)=O [^68Ga-7, metal not drawn] (H-[dI]LRWSRKK(DOTA)-NH2; N-terminus assumed)",visualization of CXCR4-expressing tumor xenograft by imaging,Jurkat xenografts [1],visualized the CXCR4-expressing tumor xenograft
same,uptake in adrenal,Jurkat xenografts [2],2.69 ± 0.94 % IA/g
same,uptake in femur,Jurkat xenografts [2],1.29 ± 0.43 % IA/g
same,uptake in heart,Jurkat xenografts [2],0.25 ± 0.09 % IA/g
same,uptake in intestine,Jurkat xenografts [2],0.59 ± 0.18 % IA/g
same,uptake in lung,Jurkat xenografts [2],1.78 ± 0.81 % IA/g
same,uptake in muscle,Jurkat xenografts [2],0.44 ± 0.26 % IA/g
same,uptake in pancreas,Jurkat xenografts [2],0.20 ± 0.11 % IA/g
same,uptake in spleen,Jurkat xenografts [2],0.85 ± 0.29 % IA/g
same,uptake in stomach,Jurkat xenografts [2],0.41 ± 0.16 % IA/g
"CC[C@H](C)[C@H](N)C(=O)N[C@@H](CC(C)C)C(=O)N[C@@H](CCCNC(=N)N)C(=O)N[C@@H](Cc1c[nH]c2ccccc12)C(=O)N[C@@H](CO)C(=O)N[C@@H](CCCNC(=N)N)C(=O)N[C@@H](CCCCN)C(=O)N[C@@H](CC(C)C)C(=O)N1CCC[C@H]1C(=O)N[C@@H](CSSC[C@H](NC(=O)[C@@H]1CCCN1C(=O)[C@H](CC(C)C)NC(=O)[C@H](CCCCN)NC(=O)[C@H](CCCNC(=N)N)NC(=O)[C@H](CO)NC(=O)[C@H](Cc1c[nH]c2ccccc12)NC(=O)[C@H](CCCNC(=N)N)NC(=O)[C@H](CC(C)C)NC(=O)[C@@H](N)[C@@H](C)CC)C(=O)N[C@H](C(=O)N[C@@H](CO)C(=O)N[C@@H](CCCCNC(=O)CN1CCN(CC(=O)O)CCN(CC(=O)O)CCN(CC(=O)O)CC1)C(=O)O)C(C)C)C(=O)N[C@H](C(=O)N[C@@H](CO)C(=O)N[C@@H](CCCCNC(=O)CN1CCN(CC(=O)O)CCN(CC(=O)O)CCN(CC(=O)O)CC1)C(=O)O)C(C)C [^natLu-1 dimer, metal not drawn]",IC50,CXCR4 [3],225 ± 111 nM
same,IC50,CXCR4 [4],122 ± 63 nM
"CC[C@H](C)[C@H](N)C(=O)N[C@@H](CC(C)C)C(=O)N[C@@H](CCCNC(=N)N)C(=O)N[C@@H](Cc1c[nH]c2ccccc12)C(=O)N[C@@H](CO)C(=O)N[C@@H](CCCNC(=N)N)C(=O)N[C@@H](CCCCN)C(=O)N[C@@H](CC(C)C)C(=O)N1CCC[C@H]1C(=O)N[C@@H](CO)C(=O)N[C@H](C(=O)N[C@@H](CO)C(=O)N[C@@H](CCCCNC(=O)CN1CCN(CC(=O)O)CCN(CC(=O)O)CCN(CC(=O)O)CC1)C(=O)O)C(C)C [^natLu-2, metal not drawn] (H-ILRWSRKLPSVSK(DOTA)-OH; N-terminus and C-terminus assumed)",IC50,CXCR4 [3],122 ± 45 nM
"CC(C)C[C@@H](N)C(=O)N[C@@H](CC(C)C)C(=O)N[C@@H](CCCNC(=N)N)C(=O)N[C@@H](Cc1c[nH]c2ccccc12)C(=O)N[C@@H](CO)C(=O)N[C@@H](CCCNC(=N)N)C(=O)N[C@@H](CCCCN)C(=O)N[C@@H](CC(C)C)C(=O)N1CCC[C@H]1C(=O)N[C@@H](CSSC[C@H](NC(=O)[C@@H]1CCCN1C(=O)[C@H](CC(C)C)NC(=O)[C@H](CCCCN)NC(=O)[C@H](CCCNC(=N)N)NC(=O)[C@H](CO)NC(=O)[C@H](Cc1c[nH]c2ccccc12)NC(=O)[C@H](CCCNC(=N)N)NC(=O)[C@H](CC(C)C)NC(=O)[C@H](N)CC(C)C)C(=O)N[C@H](C(=O)N[C@@H](CO)C(=O)N[C@@H](CCCCNC(=O)CN1CCN(CC(=O)O)CCN(CC(=O)O)CCN(CC(=O)O)CC1)C(=O)O)C(C)C)C(=O)N[C@H](C(=O)N[C@@H](CO)C(=O)N[C@@H](CCCCNC(=O)CN1CCN(CC(=O)O)CCN(CC(=O)O)CCN(CC(=O)O)CC1)C(=O)O)C(C)C [^natLu-6 dimer, metal not drawn]",IC50,CXCR4 [3],763 ± 135 nM
same,IC50,CXCR4 [4],662 ± 160 nM
"CCCCCCCCCCCCCCCC(=O)NCCCC[C@H](NC(=O)[C@H](CCCCN)NC(=O)[C@H](CO)NC(=O)[C@H](Cc1c[nH]c2ccccc12)NC(=O)[C@H](CCCNC(=N)N)NC(=O)[C@@H](NC(=O)[C@@H](N)[C@@H](C)CC)C(C)C)C(=O)N[C@H](C(=O)N1CCC[C@H]1C(=O)N[C@@H](CS)C(=O)N[C@H](C(=O)N[C@@H](CO)C(=O)N[C@@H](CCCCNC(=O)CN1CCN(CC(=O)O)CCN(CC(=O)O)CCN(CC(=O)O)CC1)C(=O)O)C(C)C)C(C)C [ligand-8, I^1VRWSKK^7(Pal)VPCS^12K(DOTA)] (H-IVRWSKK(Palmitoyl)VPCVSK(DOTA)-OH; N-terminus and C-terminus assumed)",IC50,CXCR4 [3],15 ± 5 nM
same,IC50,CXCR4 [4],4 ± 2 nM
